{"source": "the Human Domainome abundance scans (Beltran et al. 2025)", "parents": {"B1": {"name": "Ubiquitin-protein ligase residues 30 to 86; numbered along this chain, Q05086 (parent)", "chain": "KHLIERYYHQLTEGCGNEACTNEFCASCPTFLRMDNNAAAIKALELYKINAKLCDPH"}}, "note": "± gives the uncertainty stated by the source.", "data": [{"variants_of": "B1", "assay": "abundance fitness (aPCA) (normalised: wild type 0, dead -1); higher = more abundant; growth selection in yeast, the domain comes from the species named", "settings": "Homo sapiens", "values": [{"variant": "KHLIERYYKQLTEGCGNEACTNEFCASCPTFLRMDNNAAAIKALELYKINAKLCDPH", "note": "[H9K]", "abundance fitness": "0.077 ± 0.066"}, {"variant": "KHLIERYYDQLTEGCGNEACTNEFCASCPTFLRMDNNAAAIKALELYKINAKLCDPH", "note": "[H9D]", "abundance fitness": "-0.189 ± 0.091"}, {"variant": "KHLIERYYPQLTEGCGNEACTNEFCASCPTFLRMDNNAAAIKALELYKINAKLCDPH", "note": "[H9P]", "abundance fitness": "-0.771 ± 0.097"}, {"variant": "KHLIERYYRQLTEGCGNEACTNEFCASCPTFLRMDNNAAAIKALELYKINAKLCDPH", "note": "[H9R]", "abundance fitness": "0.025 ± 0.047"}, {"variant": "KHLIERYYVQLTEGCGNEACTNEFCASCPTFLRMDNNAAAIKALELYKINAKLCDPH", "note": "[H9V]", "abundance fitness": "-0.014 ± 0.059"}, {"variant": "KHLIERYYSQLTEGCGNEACTNEFCASCPTFLRMDNNAAAIKALELYKINAKLCDPH", "note": "[H9S]", "abundance fitness": "0.017 ± 0.061"}, {"variant": "KHLIERYYQQLTEGCGNEACTNEFCASCPTFLRMDNNAAAIKALELYKINAKLCDPH", "note": "[H9Q]", "abundance fitness": "0.05 ± 0.072"}, {"variant": "KHLIERYYIQLTEGCGNEACTNEFCASCPTFLRMDNNAAAIKALELYKINAKLCDPH", "note": "[H9I]", "abundance fitness": "0.015 ± 0.12"}, {"variant": "KHLIERYYAQLTEGCGNEACTNEFCASCPTFLRMDNNAAAIKALELYKINAKLCDPH", "note": "[H9A]", "abundance fitness": "0.007 ± 0.062"}, {"variant": "KHLIERYYCQLTEGCGNEACTNEFCASCPTFLRMDNNAAAIKALELYKINAKLCDPH", "note": "[H9C]", "abundance fitness": "-0.034 ± 0.071"}, {"variant": "KHLIERYYLQLTEGCGNEACTNEFCASCPTFLRMDNNAAAIKALELYKINAKLCDPH", "note": "[H9L]", "abundance fitness": "0.093 ± 0.06"}, {"variant": "KHLIERYYYQLTEGCGNEACTNEFCASCPTFLRMDNNAAAIKALELYKINAKLCDPH", "note": "[H9Y]", "abundance fitness": "-0.123 ± 0.066"}, {"variant": "KHLIERYYMQLTEGCGNEACTNEFCASCPTFLRMDNNAAAIKALELYKINAKLCDPH", "note": "[H9M]", "abundance fitness": "-0.013 ± 0.07"}, {"variant": "KHLIERYYFQLTEGCGNEACTNEFCASCPTFLRMDNNAAAIKALELYKINAKLCDPH", "note": "[H9F]", "abundance fitness": "-0.12 ± 0.088"}, {"variant": "KHLIERYYWQLTEGCGNEACTNEFCASCPTFLRMDNNAAAIKALELYKINAKLCDPH", "note": "[H9W]", "abundance fitness": "-0.055 ± 0.059"}, {"variant": "KHLIERYYTQLTEGCGNEACTNEFCASCPTFLRMDNNAAAIKALELYKINAKLCDPH", "note": "[H9T]", "abundance fitness": "0.032 ± 0.063"}, {"variant": "KHLIERYYEQLTEGCGNEACTNEFCASCPTFLRMDNNAAAIKALELYKINAKLCDPH", "note": "[H9E]", "abundance fitness": "-0.131 ± 0.067"}, {"variant": "KHLIERYYGQLTEGCGNEACTNEFCASCPTFLRMDNNAAAIKALELYKINAKLCDPH", "note": "[H9G]", "abundance fitness": "-0.008 ± 0.049"}, {"variant": "KHLIERYYHQLAEGCGNEACTNEFCASCPTFLRMDNNAAAIKALELYKINAKLCDPH", "note": "[T12A]", "abundance fitness": "-0.128 ± 0.058"}, {"variant": "KHLIERYYHQLPEGCGNEACTNEFCASCPTFLRMDNNAAAIKALELYKINAKLCDPH", "note": "[T12P]", "abundance fitness": "-0.998 ± 0.11"}, {"variant": "KHLIERYYHQLIEGCGNEACTNEFCASCPTFLRMDNNAAAIKALELYKINAKLCDPH", "note": "[T12I]", "abundance fitness": "-0.062 ± 0.074"}, {"variant": "KHLIERYYHQLFEGCGNEACTNEFCASCPTFLRMDNNAAAIKALELYKINAKLCDPH", "note": "[T12F]", "abundance fitness": "-0.204 ± 0.12"}, {"variant": "KHLIERYYHQLVEGCGNEACTNEFCASCPTFLRMDNNAAAIKALELYKINAKLCDPH", "note": "[T12V]", "abundance fitness": "-0.028 ± 0.058"}, {"variant": "KHLIERYYHQLREGCGNEACTNEFCASCPTFLRMDNNAAAIKALELYKINAKLCDPH", "note": "[T12R]", "abundance fitness": "-0.073 ± 0.052"}, {"variant": "KHLIERYYHQLLEGCGNEACTNEFCASCPTFLRMDNNAAAIKALELYKINAKLCDPH", "note": "[T12L]", "abundance fitness": "-0.015 ± 0.056"}, {"variant": "KHLIERYYHQLGEGCGNEACTNEFCASCPTFLRMDNNAAAIKALELYKINAKLCDPH", "note": "[T12G]", "abundance fitness": "-0.569 ± 0.055"}, {"variant": "KHLIERYYHQLDEGCGNEACTNEFCASCPTFLRMDNNAAAIKALELYKINAKLCDPH", "note": "[T12D]", "abundance fitness": "-0.353 ± 0.1"}, {"variant": "KHLIERYYHQLQEGCGNEACTNEFCASCPTFLRMDNNAAAIKALELYKINAKLCDPH", "note": "[T12Q]", "abundance fitness": "-0.079 ± 0.071"}, {"variant": "KHLIERYYHQLMEGCGNEACTNEFCASCPTFLRMDNNAAAIKALELYKINAKLCDPH", "note": "[T12M]", "abundance fitness": "0.03 ± 0.077"}, {"variant": "KHLIERYYHQLEEGCGNEACTNEFCASCPTFLRMDNNAAAIKALELYKINAKLCDPH", "note": "[T12E]", "abundance fitness": "-0.355 ± 0.079"}, {"variant": "KHLIERYYHQLSEGCGNEACTNEFCASCPTFLRMDNNAAAIKALELYKINAKLCDPH", "note": "[T12S]", "abundance fitness": "-0.039 ± 0.063"}, {"variant": "KHLIERYYHQLWEGCGNEACTNEFCASCPTFLRMDNNAAAIKALELYKINAKLCDPH", "note": "[T12W]", "abundance fitness": "-0.359 ± 0.069"}, {"variant": "KHLIERYYHQSTEGCGNEACTNEFCASCPTFLRMDNNAAAIKALELYKINAKLCDPH", "note": "[L11S]", "abundance fitness": "-0.425 ± 0.057"}, {"variant": "KHLIERYYHQVTEGCGNEACTNEFCASCPTFLRMDNNAAAIKALELYKINAKLCDPH", "note": "[L11V]", "abundance fitness": "-0.036 ± 0.051"}, {"variant": "KHLIERYYHQETEGCGNEACTNEFCASCPTFLRMDNNAAAIKALELYKINAKLCDPH", "note": "[L11E]", "abundance fitness": "-0.843 ± 0.081"}, {"variant": "KHLIERYYHQYTEGCGNEACTNEFCASCPTFLRMDNNAAAIKALELYKINAKLCDPH", "note": "[L11Y]", "abundance fitness": "-0.566 ± 0.11"}, {"variant": "KHLIERYYHQTTEGCGNEACTNEFCASCPTFLRMDNNAAAIKALELYKINAKLCDPH", "note": "[L11T]", "abundance fitness": "-0.201 ± 0.071"}, {"variant": "KHLIERYYHQMTEGCGNEACTNEFCASCPTFLRMDNNAAAIKALELYKINAKLCDPH", "note": "[L11M]", "abundance fitness": "-0.14 ± 0.081"}, {"variant": "KHLIERYYHQNTEGCGNEACTNEFCASCPTFLRMDNNAAAIKALELYKINAKLCDPH", "note": "[L11N]", "abundance fitness": "-0.774 ± 0.13"}, {"variant": "KHLIERYYHQDTEGCGNEACTNEFCASCPTFLRMDNNAAAIKALELYKINAKLCDPH", "note": "[L11D]", "abundance fitness": "-0.834 ± 0.1"}, {"variant": "KHLIERYYHQCTEGCGNEACTNEFCASCPTFLRMDNNAAAIKALELYKINAKLCDPH", "note": "[L11C]", "abundance fitness": "-0.153 ± 0.064"}, {"variant": "KHLIERYYHQWTEGCGNEACTNEFCASCPTFLRMDNNAAAIKALELYKINAKLCDPH", "note": "[L11W]", "abundance fitness": "-0.904 ± 0.08"}, {"variant": "KHLIERYYHQRTEGCGNEACTNEFCASCPTFLRMDNNAAAIKALELYKINAKLCDPH", "note": "[L11R]", "abundance fitness": "-0.872 ± 0.066"}, {"variant": "KHLIERYYHQGTEGCGNEACTNEFCASCPTFLRMDNNAAAIKALELYKINAKLCDPH", "note": "[L11G]", "abundance fitness": "-0.681 ± 0.053"}, {"variant": "KHLIERYYHQKTEGCGNEACTNEFCASCPTFLRMDNNAAAIKALELYKINAKLCDPH", "note": "[L11K]", "abundance fitness": "-0.848 ± 0.1"}, {"variant": "KHLIERYYHQQTEGCGNEACTNEFCASCPTFLRMDNNAAAIKALELYKINAKLCDPH", "note": "[L11Q]", "abundance fitness": "-0.41 ± 0.086"}, {"variant": "KHLIERYYHQPTEGCGNEACTNEFCASCPTFLRMDNNAAAIKALELYKINAKLCDPH", "note": "[L11P]", "abundance fitness": "-0.865 ± 0.13"}]}]}
